Here are results for 4 substances from patent US6867003.

This assay concerns the target insulin receptor partially purified from CHO-IR cells (Chinese Hamster Ovary cells expressing high levels of insulin receptors of human origin) (human) (UniProt P06213). Put plainly: cell-based or functional assay.

Sequence of GST-rGrb14 (O88900 whole entry): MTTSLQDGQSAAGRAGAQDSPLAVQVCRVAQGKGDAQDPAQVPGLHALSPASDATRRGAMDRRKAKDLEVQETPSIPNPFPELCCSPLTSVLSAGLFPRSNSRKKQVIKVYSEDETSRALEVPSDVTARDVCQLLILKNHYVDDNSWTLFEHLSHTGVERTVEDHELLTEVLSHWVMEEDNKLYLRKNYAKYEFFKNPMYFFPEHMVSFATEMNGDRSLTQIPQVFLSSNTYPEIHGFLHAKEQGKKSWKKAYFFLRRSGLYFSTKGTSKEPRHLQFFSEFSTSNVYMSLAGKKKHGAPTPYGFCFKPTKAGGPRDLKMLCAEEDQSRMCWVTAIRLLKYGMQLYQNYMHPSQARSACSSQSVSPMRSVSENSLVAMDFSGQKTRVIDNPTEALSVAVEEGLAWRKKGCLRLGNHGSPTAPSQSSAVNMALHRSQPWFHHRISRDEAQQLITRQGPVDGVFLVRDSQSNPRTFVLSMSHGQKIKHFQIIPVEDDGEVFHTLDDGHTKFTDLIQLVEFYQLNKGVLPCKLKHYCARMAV
Sequence of GST-PIR+SH2 of rGrb14 (O88900 353-538): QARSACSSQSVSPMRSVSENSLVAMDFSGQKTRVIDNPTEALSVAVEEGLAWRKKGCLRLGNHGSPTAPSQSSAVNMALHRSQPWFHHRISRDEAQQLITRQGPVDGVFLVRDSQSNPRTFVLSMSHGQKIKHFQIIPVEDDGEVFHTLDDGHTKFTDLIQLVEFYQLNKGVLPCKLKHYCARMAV

Consider “GST-PIR of rGrb14 (from UniProt O88900 353-436)”, for which the amount giving total inhibition of the tyrosine kinase activity of the insulin receptors was determined as 0.3 µg.

“GST-PIR+SH2 of rGrb14 (from UniProt O88900 353-538)” registered an amount giving the maximum inhibitory effect on the tyrosine kinase activity of the insulin receptors of 0.03 µg.

For GST-rGrb7 (from UniProt Q9QZC5 1-535), the maximum inhibition of the tyrosine kinase activity of the insulin receptors worked out at 40%.

GST-rGrb14 (from UniProt O88900 1-538): the amount giving 50% inhibition of the tyrosine kinase activity of the receptors (32P incorporation into poly Glu-Tyr) was determined as 0.04 µg.
